Starred links: 1 amine or outer side, 2 acyl side, 3 side chain; linkers in the order of their positions; H or OH if unused. Positions of bridges follow the written chain, without caps; N, C: chain ends. Non-standard residues stand in square brackets, D forms with d. Primed or numbered codes have the meaning given here. *: point of attachment. Af3(Aytr) = 3-amino-L-phenylalanine, ring amine acylated with triazol-1-yl acetic acid bearing a 4-hydroxamic acid group, O=C(Cn1cc(C(=O)NO)nn1)Nc1cccc(C[C@H](N[*:1])C(=O)[*:2])c1; Af3(CMPy) = 3-amino-L-phenylalanine acylated on the ring amine with 5-cyano-1-methyl-1H-pyrazole-4-carboxylic acid, Cn1ncc(C(=O)Nc2cccc(C[C@H](N[*:1])C(=O)[*:2])c2)c1C#N; Aph(Hspy) = 4-amino-L-phenylalanine, ring amine acylated with 4-sulfamoyl-1H-pyrrole-2-carboxylic acid, NS(=O)(=O)c1c[nH]c(C(=O)Nc2ccc(C[C@H](N[*:1])C(=O)[*:2])cc2)c1; Aph(HO-Succinyl) = 4-aminophenylalanine acylated on the ring amine with succinic acid (free carboxyl), O=C(CCC(=O)[*:3])Nc1ccc(C[C@H](N[*:1])C(=O)[*:2])cc1; Aph(SaPr)″ = 4-amino-L-phenylalanine, ring amine acylated with 3-sulfamoylpropanoic acid, NS(=O)(=O)CCC(=O)Nc1ccc(C[C@H](N[*:1])C(=O)[*:2])cc1; Af3(DkpAc) = 3-amino-L-phenylalanine acylated on the ring amine with 2-(3,6-dioxopiperazin-2-yl)acetic acid; Af3(Cshx) = 3-amino-L-phenylalanine, ring amine acylated with 4-sulfamoylcyclohexane-1-carboxylic acid; APAc″ = 2-(4-(amino)piperidin-1-yl)acetic acid, NC1CCN(CC(=O)*)CC1; DOTA = O=C(O)CN1CCN(CC(=O)O)CCN(CC(=O)*)CCN(CC(=O)O)CC1; PPAc = 4-carboxymethyl piperazine linker; mXylylene = c1cc(C[*:1])cc(C[*:2])c1; Af3(Aype) = not defined here; Af3(Hytr) = not defined here; Aph(Aybu) = not defined here; Dap = NC[C@H](N)C(=O)O; AEEA = NCCOCCOCC(=O)O
Assays:
[1] = target: human carbonic anhydrase 9 (CAIX) (human, UniProt Q16790 38-459); assay: FACS competition on HT-29 cells, competitor tracer 3BP-4149; category A = pIC50 >8.0
Method: (§1) CAIX-expressing human HT-29 colorectal cancer cells (DSMZ, RRID: CVCL_0320) were cultured in McCoys's 5A modified medium (Biochrom, #F1015) including 10% fetal calf serum (FCS), 2 mM L-glutamine, 100 U/ml penicillin and 100 μg/mL streptomycin. Cells were detached with Accutase (Biolegend, #423201) and washed in FACS buffer (PBS including 1% FCS). Cells were diluted in FACS buffer to a final concentration of 500.000 cells per ml. 200 μL of the cell suspension were transferred to a u-shaped non-binding 96-well plate (Greiner) and cells were washed in ice-cold FACS buffer.
(§2) When biotinylated compounds were used an additional incubation step with 1 μg/mL APC-Streptavidin (Miltenyi; #130-106-791) in 50 μL FACS buffer for 30 minutes on ice was performed.
(§3) Cells were washed twice with ice-cold FACS buffer and analyzed in an Attune NxT flow cytometer (Thermo Fisher). Median fluorescence intensities (MFI) of the APC/Cy5-channel were calculated by Attune NxT software.

[2] = target: human carbonic anhydrase IX (CAIX) (human, UniProt Q16790 38-459); assay: FACS competition, HT-29 cells, tracer 3BP-2776; pIC50 category C: 6.1-7.0
Method: as §1, §2, §3

[3] = target: T1, Fc-fusion protein of human carbonic anhydrase IX (human, UniProt Q16790 38-414); assay: SPR, captured hCAIX-Fc; pKD category B: 7.1-8.0
Method: (§4) Stock solutions of test compounds were prepared by dissolving each compound in DMSO. DMSO stock solution were diluted 1:1000 in Running Buffer without DMSO. […] SPR binding analyses were performed in Single Cycle Kinetic (SCK) mode at 25° C.
(§5) For each test compound, SPR raw data in the form of resonance units (RU) were plotted as sensorgrams using the Biacore™ T200 control software. The signal from the blank sensorgram was subtracted from that of the test compound sensorgram (blank corrected). The blank corrected sensorgram was corrected for baseline drift by subtracting the sensorgram of a SCK run without the test compound (running buffer only). […] Raw data and fit results were imported as text files in IDBS. The pKD value (negative decadic logarithm of dissociation constant) was calculated in the IDBS excel template.

[4] = target: T1, Fc-fusion protein of human carbonic …; assay: SPR, captured hCAIX-Fc; t1/2 category C: 2.1-5.0 min
[5] = target: T1, Fc-fusion protein of human carbonic …; assay: SPR, captured hCAIX-Fc; t1/2 category D: <=2.0 min
Method: as §4, §5

[6] = target: T2, human carbonic anhydrase XIV (CAXIV), biotinylated (human, UniProt Q9ULX7 16-290, biotinylated); assay: SPR, biotinylated CAXIV captured (Biotin CAPture)
T2 construct: Bought (SinoBiological Cat #10458-H08H); also called hCAXIV-bio
T2 sequence (Q9ULX7 16-290 limits assumed): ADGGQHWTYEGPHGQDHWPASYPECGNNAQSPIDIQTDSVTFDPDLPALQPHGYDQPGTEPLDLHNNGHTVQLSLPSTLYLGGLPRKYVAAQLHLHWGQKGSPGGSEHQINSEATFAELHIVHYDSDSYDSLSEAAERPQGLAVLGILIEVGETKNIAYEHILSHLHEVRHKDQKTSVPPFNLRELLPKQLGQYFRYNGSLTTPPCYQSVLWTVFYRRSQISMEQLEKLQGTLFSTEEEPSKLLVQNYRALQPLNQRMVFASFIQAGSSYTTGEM
Excerpt: as §5

[7] = target: T1, Fc-fusion protein of human carbonic …; assay: SPR, captured hCAIX-Fc; t1/2 category A: >15.0 min
[8] = target: T3, human carbonic anhydrase IV (CAIV), biotinylated (human, UniProt P22748 19-283, limits assumed, biotinylated); assay: SPR, biotinylated CAIV captured (Biotin CAPture)
T3 construct: Bought (SinoBiological, Cat # printed 10472-1H081H); also called hCAIV-bio
T3 sequence (P22748 19-283 limits assumed): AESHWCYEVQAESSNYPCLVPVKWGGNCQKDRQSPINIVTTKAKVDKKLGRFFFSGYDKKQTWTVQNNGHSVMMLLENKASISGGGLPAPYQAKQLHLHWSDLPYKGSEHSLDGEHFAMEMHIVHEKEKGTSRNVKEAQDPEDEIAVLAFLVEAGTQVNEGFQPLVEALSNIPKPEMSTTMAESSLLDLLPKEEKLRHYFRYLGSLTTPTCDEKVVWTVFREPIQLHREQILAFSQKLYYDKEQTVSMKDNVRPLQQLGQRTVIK
Excerpt: as §5

[9] = target: T4, human carbonic anhydrase XII (CAXII), biotinylated (human, UniProt O43570 25-301, biotinylated); assay: SPR, biotinylated CAXII captured (Biotin CAPture)
T4 construct: Bought (SinoBiological Cat #10617-H08H); also called hCAXII-bio
T4 sequence (O43570 25-301 limits assumed): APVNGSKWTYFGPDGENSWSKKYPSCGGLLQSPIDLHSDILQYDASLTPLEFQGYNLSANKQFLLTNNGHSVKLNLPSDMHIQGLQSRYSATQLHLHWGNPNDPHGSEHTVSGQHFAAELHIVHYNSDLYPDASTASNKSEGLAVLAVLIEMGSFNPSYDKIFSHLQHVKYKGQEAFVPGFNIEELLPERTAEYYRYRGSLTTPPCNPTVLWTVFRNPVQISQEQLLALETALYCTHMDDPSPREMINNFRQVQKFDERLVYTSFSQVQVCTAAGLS
Excerpt: as §5

B1: 3BP-4263 (peptide)
peptide: {DOTA-Gab}-DCE[dP]DWLTW[Dap]C-NH2
modifications: lactam 10-1; linker 2-11 via mXylylene
**Q.** How did the pIC50 [1] turn out when B1 was run?
**A.** Its pIC50 is over 8 pic50.

B2: 3BP-4264 (peptide)
peptide: {DOTA}-VDCE[dP]DWLTW[Dap]C-NH2
modifications: lactam 2-11; linker 3-12 via mXylylene
SMILES: CC(C)C[C@@H]1NC(=O)[C@H](Cc2c[nH]c3ccccc23)NC(=O)[C@H](CC(=O)O)NC(=O)[C@H]2CCCN2C(=O)[C@H](CCC(=O)O)NC(=O)[C@@H]2CSCc3cccc(c3)CSC[C@@H](C(N)=O)NC(=O)[C@H](CNC(=O)C[C@H](NC(=O)[C@@H](NC(=O)CN3CCN(CC(=O)O)CCN(CC(=O)O)CCN(CC(=O)O)CC3)C(C)C)C(=O)N2)NC(=O)[C@H](Cc2c[nH]c3ccccc23)NC(=O)[C@H]([C@@H](C)O)NC1=O
**Q.** For B2, which pIC50 [1] is on record?
**A.** Its pIC50 is over 8 pic50.

B3: 3BP-4787 (peptide)
peptide: {DOTA-PPAc}-QCE[dP]D[Af3(Cshx)]LTWSC-NH2
modifications: linker 2-11 via mXylylene
**Q.** Which pIC50 [2] does the source give for B3 here?
**A.** Its pIC50 is 6.1 to 7 pic50.

B4: 3BP-4814 (peptide)
peptide: {DOTA-PPAc}-QCE[dP]D[Aph(Hspy)]LTWSC-NH2
modifications: linker 2-11 via mXylylene
**Q.** With B4 as the binder, how does the pIC50 [2] read?
**A.** Its pIC50 is 6.1 to 7 pic50.

B5: 3BP-4847 (peptide)
peptide: {DOTA-PPAc}-QCE[dP]D[Af3(Aytr)]LTWSC-NH2
modifications: linker 2-11 via mXylylene
**Q.** B5 was tested. Which pIC50 [2] did it give?
**A.** The pIC50 was 6.1 to 7 pic50.

B6: 3BP-4882 (peptide)
peptide: {DOTA-PPAc}-QCE[dP]D[Af3(Hytr)]LTWSC-NH2
modifications: linker 2-11 via mXylylene; reading uncertain
**Q.** How did the pIC50 [2] turn out when B6 was run?
**A.** Its pIC50 is 6.1 to 7 pic50.

B7: 3BP-4884 (peptide)
peptide: {DOTA-PPAc}-QCE[dP]D[Aph(Aybu)]LTWSC-NH2
modifications: linker 2-11 via mXylylene; reading uncertain
**Q.** With B7 as the binder, how does the pIC50 [2] read?
**A.** The pIC50 was 6.1 to 7 pic50.

B8: 3BP-4886 (peptide)
peptide: {DOTA-PPAc}-QCE[dP]D[Af3(Aype)]LTWSC-NH2
modifications: linker 2-11 via mXylylene; reading uncertain
**Q.** Which pIC50 [2] does the source give for B8 here?
**A.** The pIC50 was 6.1 to 7 pic50.

B9: 3BP-3869 (peptide)
peptide: {DOTA-AEEA}-YCE[dP]DWLTWSC-NH2
modifications: linker 2-11 via mXylylene
SMILES: CC(C)C[C@@H]1NC(=O)[C@H](Cc2c[nH]c3ccccc23)NC(=O)[C@H](CC(=O)O)NC(=O)[C@H]2CCCN2C(=O)[C@H](CCC(=O)O)NC(=O)[C@@H](NC(=O)[C@H](Cc2ccc(O)cc2)NC(=O)COCCOCCNC(=O)CN2CCN(CC(=O)O)CCN(CC(=O)O)CCN(CC(=O)O)CC2)CSCc2cccc(c2)CSC[C@@H](C(N)=O)NC(=O)[C@H](CO)NC(=O)[C@H](Cc2c[nH]c3ccccc23)NC(=O)[C@H]([C@@H](C)O)NC1=O
**Q.** How did the pKD [3] turn out when B9 was run?
**A.** Its pKD is 7.1 to 8 pkd.

**Q.** What about the “t1/2 (half-life of the complex, SPR)” value [4] of the same binder?
**A.** The value was 2.1 to 5 min.

B10: 3BP-4288 (peptide)
peptide: {DOTA-APAc″}-VYCE[dP]D[Af3(DkpAc)]LTWSC-NH2
modifications: linker 3-12 via mXylylene
**Q.** With B10 as the binder, how does the pKD [3] read?
**A.** The pKD was 7.1 to 8 pkd.

**Q.** And the “t1/2 (half-life of the complex, SPR)” value [5]?
**A.** Its value is at most 2 min.

B11: 3BP-4305 (peptide)
peptide: {DOTA-APAc″}-VYCE[dP]D[Af3(CMPy)]LTWSC-NH2
modifications: linker 3-12 via mXylylene
**Q.** What does the source list for B11?
**A.** pKD [3]: 7.1 to 8 pkd; t1/2 (half-life of the complex, SPR) [5]: ≤ 2 min

B12: 3BP-4356 (peptide)
peptide: {DOTA-APAc″}-VYCE[dP]D[Aph(HO-Succinyl)]LTWSC-NH2
modifications: linker 3-12 via mXylylene
**Q.** With B12 as the binder, how does the pKD [3] read?
**A.** Its pKD is 7.1 to 8 pkd.

**Q.** And the “t1/2 (half-life of the complex, SPR)” value [5]?
**A.** Its value is at most 2 min.

B13: 3BP-4581 (peptide)
peptide: {DOTA}-QCE[dP]D[Aph(SaPr)″]LTWSC-NH2
modifications: linker 2-11 via mXylylene; also: Lu complexed in DOTA
notes: also called natLu-3BP-4501
**Q.** What does the source list for B13?
**A.** pKD [6]: < 6 pkd; t1/2 (half-life of the complex, SPR) [7]: > 15 min; pKD [8]: < 6 pkd; pKD [9]: < 6 pkd
